Results on 2 molecules are retold here after patent publication US20160324984A1 (published 2016).

Test [1] deals with PYY_helicar (helicar motif engineered PYY). Description: SEC-MALLS.
The target is the same in test [2]. Description: column binding [Kd]; method not stated.
The target of test [3] is T1, Ac-PYY(PEG3-Dig) (N-terminal acetyl; Lys 2 side chain carries PEG3-digoxigenin-3-carboxymethyl; Pqa at position 3; N-methyl-Arg at position 14; C-terminal amide).
T1 construct: also called DIG-PYY; Digoxigenin-PYY(3-36) conjugate
T1 peptide: IKXRHYLNWVTRQXY
Briefly: size exclusion chromatography and SEC-MALLS; binding through digoxigenin. In general terms: Size exclusion chromatography separates by hydrodynamic size, large species first.

Sequence of PYY_helicar (helicar motif engineered PYY) (peptide, as listed by the source, change not shown): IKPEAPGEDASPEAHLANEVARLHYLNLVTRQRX

B1: anti-helicar motif amino acid sequence antibody (0019) (antibody, V domains shown)
V domain 1: QAVVTQEPSLTVSPGGTVTLTCGSSTGAVTTSNYASWVQQKPGQAFTGLIGGTNNRAPWTPARFSGSLLGGKAALTLSGAQPEDEAEYYCALWYSNHWVFGGGTKLTVL
V domain 2: DAVVTQESALTTSPGETVTLTCRSSTGAVTTSNYASWVQEKPDHLFTGLIGGTNNRAPGVPARFSGSLIGDKAALTITGAQTEDEAIYFCALWYSNHWVFGGGTKLTVL
By Kd is commonly meant the equilibrium constant for the complex coming apart. Low readings indicate higher affinity, high ones lower affinity. With B1, the stoichiometry of the complex (peptides on one bivalent antibody) (peptides per antibody) in test [1] stood at 1.6. In addition, the Kd in test [2] was 12 nM.

B2: murine anti-digoxigenin antibody (hybridoma-derived) (antibody, mouse IgG1, V domains shown)
VH: EVQLVESGGGLVKPGGSLKLSCAVSGFTFSDYAMSWIRQTPENRLEWVASINIGATYAYYPDSVKGRFTISRDNAKNTLFLQMSSLGSEDTAMYYCARPGSPYEYDKAYYSMAYWGPGTSVTVSS
VL: DVQMTQSTSSLSASLGDRVTISCRASQDIKNYLNWYQQKPGGTVKLLIYYSSTLLSGVPSRFSGRGSGTDFSLTITNLEREDIATYFCQQSITLPPTFGGGTKLEIK
As to B2, the binding result in test [3] is given as “binds”.
